Data on 2 molecules can be found in PMC5823874, “The structure of iPLA2β reveals dimeric active sites and suggests mechanisms of regulation and localization” (Nature Communications, 2018).

No end group written: not given here.

For the assay, the target named is Calmodulin (CaM), unmodified (UniProt P0DP23 1-149). Description: fluorescence polarisation; synthetic FAM-labeled peptides of iPLA2β with CaM (Supplementary Figure 7h). The settings on record: both partners purified. In general terms: Polarisation of emitted light reports the rotation of a fluorescent probe.

The term Kd denotes a measure of binding affinity in units of concentration. A high value points to weaker binding. Turning to RKGQGNKVKK (also: FAM label (position not given here)) [Synthetic FAM-labeled peptide corresponding to the 1-9-14 motif of iPLA2β], the affinity, expressed as Kd, was 2.5 ± 0.4 µM.

AWSEMVGIQYFR (also: FAM label (position not given here)) [Synthetic FAM-labeled peptide corresponding to the IQ motif of iPLA2β] came in with a Kd of 5.9 ± 0.8 µM. This Kd is about 2.4-fold higher than that of the molecule before.
